B1: A2-7A05: anti-α5β1 antibody, VH SEQ ID NO:77, VL SEQ ID NO:78; tested as mouse hybridoma antibody and as human IgG4 chimera (antibody, V domains shown)
VH: QVQLQQPGAELVKPGASVKLSCKASGYTFTIYWINWVKQRPGQGLEWIGKIYPGSISTDYNEKFKSKATLTVDTSSSTAYMQLSSLTSDDSAVYYCAITGTGGLAYWGQGTLVTVSA
VL: ENVLTQSPAIMSASLGEKVTMTCRASSSVNYMYWYQQKSDASPKLWIYFTSSLAPGVPGRFSGSGSGNSYSLTISTMEGEDAATYYCQQFTTSPFTFGSGTKLEIK
modifications: A2-7A05 VH Sequence; A2-7A05 VL Sequence
notes: tested as mouse hybridoma antibody and as human IgG4 chimera
B2: A-15B08: anti-α5β1 antibody, VH SEQ ID NO:25, VL SEQ ID NO:26; tested as mouse hybridoma antibody and as human IgG4 chimera (antibody, V domains shown)
VH: QVQLKESGPGLVAPSQSLSITCTISGFSLTSYGVHWVRQPPGKGLEWLVVIWSDGSTTYNSTLKSRLSISKDNSKSQVFFKMNSLQTDDTAMYYCARHYDYDGDWFAYWGQGTLVTVSA
VL: QIVLTQSPAIMSASLGERVTMTCTASSRVSSNSLHWYQQKPGSSPKLWIYSTSNLASGVPARFSGSGSGTSYSLTISSMEAEDAATYYCHQYLRSPPTFGGGTKLEIK
modifications: A-15B08 VH Sequence; A-15B08 VL Sequence
notes: as for B1

How the values were obtained:
rh-α5β1 = rh-α5β1 (Homo sapiens, UniProt P05556+P08648); assay: Competition binding studies by Biolayer Interferometry (epitope groups); conditions: for binding of rh-α5β1 complexed with antibody to C-14D12 on the sensor: C-14D12 immobilized on sensor; for Response (nm) / % Response: secondary mAb pre-mixed with 20 nM rh-α5β1; for % Response: relative to antigen alone; for epitope group: two epitope groups among 6 antibodies
Chain of rh-α5β1 (P08648 42-894 limits assumed): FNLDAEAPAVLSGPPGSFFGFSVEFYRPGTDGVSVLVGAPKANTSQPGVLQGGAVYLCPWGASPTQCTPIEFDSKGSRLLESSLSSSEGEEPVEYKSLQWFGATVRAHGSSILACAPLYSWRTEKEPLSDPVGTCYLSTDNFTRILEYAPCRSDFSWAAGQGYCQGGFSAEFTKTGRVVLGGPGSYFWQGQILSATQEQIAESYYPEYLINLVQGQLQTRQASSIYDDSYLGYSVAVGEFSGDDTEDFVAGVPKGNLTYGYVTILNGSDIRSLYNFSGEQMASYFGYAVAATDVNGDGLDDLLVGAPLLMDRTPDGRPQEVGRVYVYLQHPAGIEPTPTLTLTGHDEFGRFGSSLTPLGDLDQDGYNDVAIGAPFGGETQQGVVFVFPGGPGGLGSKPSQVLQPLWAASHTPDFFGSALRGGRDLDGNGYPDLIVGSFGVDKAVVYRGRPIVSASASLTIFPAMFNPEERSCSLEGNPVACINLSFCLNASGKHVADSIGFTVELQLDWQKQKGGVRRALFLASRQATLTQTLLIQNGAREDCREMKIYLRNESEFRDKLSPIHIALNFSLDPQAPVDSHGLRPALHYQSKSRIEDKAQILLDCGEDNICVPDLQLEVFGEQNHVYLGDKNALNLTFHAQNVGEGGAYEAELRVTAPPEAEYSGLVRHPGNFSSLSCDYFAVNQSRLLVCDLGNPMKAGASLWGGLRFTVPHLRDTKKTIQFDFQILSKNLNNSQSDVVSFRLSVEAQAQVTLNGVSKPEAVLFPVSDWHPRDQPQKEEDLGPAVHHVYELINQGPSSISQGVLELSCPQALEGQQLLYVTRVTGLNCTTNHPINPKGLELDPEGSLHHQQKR
Chain of rh-α5β1 (P08648 895-995 limits assumed): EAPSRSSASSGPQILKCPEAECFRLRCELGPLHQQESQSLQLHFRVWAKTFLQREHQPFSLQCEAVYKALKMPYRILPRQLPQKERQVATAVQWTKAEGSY
Chain of rh-α5β1 (P05556 21-728 limits assumed): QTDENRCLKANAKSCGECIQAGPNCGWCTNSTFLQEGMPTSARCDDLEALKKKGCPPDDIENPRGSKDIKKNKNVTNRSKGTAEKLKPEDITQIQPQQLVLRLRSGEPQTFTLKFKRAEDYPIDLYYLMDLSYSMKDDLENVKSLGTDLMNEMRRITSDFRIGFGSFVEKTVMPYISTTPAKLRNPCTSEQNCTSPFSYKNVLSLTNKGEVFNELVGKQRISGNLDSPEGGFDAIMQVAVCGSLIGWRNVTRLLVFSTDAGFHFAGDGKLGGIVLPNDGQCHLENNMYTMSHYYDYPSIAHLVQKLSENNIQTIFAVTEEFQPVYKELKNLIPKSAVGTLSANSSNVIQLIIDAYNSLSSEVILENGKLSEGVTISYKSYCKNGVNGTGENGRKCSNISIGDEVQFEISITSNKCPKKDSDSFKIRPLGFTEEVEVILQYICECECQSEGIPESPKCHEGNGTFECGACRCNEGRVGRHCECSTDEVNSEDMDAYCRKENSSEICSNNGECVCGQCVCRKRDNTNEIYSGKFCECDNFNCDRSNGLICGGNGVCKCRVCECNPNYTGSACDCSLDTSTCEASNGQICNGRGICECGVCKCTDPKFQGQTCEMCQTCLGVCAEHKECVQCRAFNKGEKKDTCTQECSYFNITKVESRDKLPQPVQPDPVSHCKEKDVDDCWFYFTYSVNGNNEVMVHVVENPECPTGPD
How it was run: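 Pre-mixed competition BLI: FN-blocking lead antibodies A2-7A05, C-14D12 or A-15B08 loaded on sensors (700 s), quenched, baselined, then exposed 600 s to partner antibody preincubated 1 hr with rh-α5β1. Response relative to antigen alone: >120% = antibodies pair, <80% = antibodies block.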

[1] = biological target: T1, rh-α5β1 in active conformation (binding to 12G10) (Homo sapiens, UniProt P05556+P08648); assay: 12G10 conformation assay (α5β1 integrin binding to 12G10); conditions: 0.5 mM MnCl2
T1 construct: purchased Acro Biosystems IT1-H52W5
T1 sequence (P08648 42-894 limits assumed): as the sequence (P08648 42-894 limits assumed) above
T1 sequence (P08648 895-995 limits assumed): as the sequence (P08648 895-995 limits assumed) above
T1 sequence (P05556 21-728 limits assumed): as the sequence (P05556 21-728 limits assumed) above
Procedure: A Nunc MaxiSorp Flat-Bottom 96-well plate (Invitrogen, Waltham, MA, cat. no. 44-2404-21) was coated with 12G10 antibody at 2 μg/mL in 0.2M carbonate-bicarbonate buffer, pH9.4 (Thermo Scientific, Rockford, IL, cat. No. 28382) by incubation overnight at 4° C. Plates were then washed 3 times with Wash Buffer (1× Tris Buffered Saline containing 0.05% Tween20), then blocked with 2% BSA in 1×TBS for 2 hours at room temperature (RT). The human IgG4 chimeric versions of the antibodies were diluted in Standard Diluent (2% BSA, 1×TBS, 0.05% Tween20) containing 0.05 μg/mL rh-α5β1-6×His tagged protein (Acro Biosystems, Newark, DE, cat. no. IT1-H52W5) and 0.5 mM MnCl2 (TEKnova, Hollister, CA, cat. no. M0350) to generate a 7 point 1:5 antibody dilution series ranging from 10,000 ng/mL to 0.64 ng/mL. In addition to human IgG4 chimeric antibodies A-15B08, C-14D12 and A2-7A05, three other antibodies tested included IgG4 isotype control (human IgG4, Kappa, anti-fluorescein Ab00102-13.0, Absolute Antibody, Wilton, UK), anti-integrin alpha-5 clone SNAKA51 (MilliporeSigma, St. Louis, MO, cat. no. MABT201) known to induce integrin alpha-5 into an active conformation, and finally the 12G10 antibody itself which can directly compete with the 12G10 bound to the MaxiSorp plate. For the assays, 100 μL of the antibody dilution series, His-tagged-α5β1 mixture was added to the wells after the blocking solution was removed and wells were washed 3 times. […] Absorbance 450 nm was measured. Data points were normalized to the absorbance of the well containing no antibody for each dilution series and reported as Percent Binding. […]

[2] = antibody preincubated with rh-α5β1

| Molecule | binding of rh-α5β1 complexed with antibody to A-15B08 on the sensor (rh-α5β1; antibody preincubated with rh-α5β1, A-15B08 immobilized on sensor) | binding of rh-α5β1 complexed with antibody to C-14D12 on the sensor (rh-α5β1; [2]) | Response (nm) (rh-α5β1; immobilized mAb A2-7A05) | % Response (rh-α5β1; immobilized mAb A2-7A05) [%] | Response (nm) (rh-α5β1; immobilized mAb A-15B08) | % Response (rh-α5β1; immobilized mAb A-15B08) [%] | Response (nm) (rh-α5β1; immobilized mAb C-14D12) | % Response (rh-α5β1; immobilized mAb C-14D12) [%] | epitope group (rh-α5β1) | effect on α5β1 integrin binding to 12G10 ([1]; dilution series 10,000 to 0.64 ng/mL) | binding of rh-α5β1 complexed with antibody to A2-7A05 on the sensor (rh-α5β1; antibody preincubated with rh-α5β1, A2-7A05 immobilized on sensor) | reduction of α5β1 integrin binding to 12G10 ([1]; human IgG4 chimeric antibodies) |
| --- | --- | --- | --- | --- | --- | --- | --- | --- | --- | --- | --- | --- |
| B1 | able to bind | able to bind | −0.17 | −451.35 | 0.31 | 150.63 | 0.31 | 139.39 | one group | did not reduce α5β1 integrin binding to 12G10 |  |  |
| B2 |  | not able to bind | 0.25 | 666.22 | −0.15 | −73.81 | −0.09 | −38.40 | second group |  | able to bind | approximately 50% |

Source: patent US20240279345A1, “ALPHA 5 BETA 1 INTEGRIN BINDING AGENTS AND USES THEREOF” (PASITHEA THERAPEUTICS CORP., priority 2021, published 2024)
